Target: mouse MBL (mannose-binding lectin of mouse serum, bound to mannan)

B1: recombinant mouse MASP-2 (rMASP-2) (protein)
chain: TLLGSKWPEPVFGRLVSPGFPEKYADHQDRSWTLTAPPGYRLRLYFTHFDLELSYRCEYDFVKLSSGTKVLATLCGQESTDTEQAPGNDTFYSLGPSLKVTFHSDYSNEKPFTGFEAFYAAEDVDECRVSLGDSVPCDHYCHNYLGGYYCSCRAGYILHQNKHTCSALCSGQVFTGRSGYLSSPEYPQPYPKLSSCTYSIRLEDGFSVILDFVESFDVETHPEAQCPYDSLKIQTDKGEHGPFCGKTLPPRIETDSHKVTITFATDESGNHTGWKIHYTSTARPCPDPTAPPNGSISPVQATYVLKDRFSVFCKTGFELLQGSVPLKSFTAVCQKDGSWDRPMPECSIIDCGPPDDLPNGHVDYITGPQVTTYKAVIQYSCEETFYTMSSNGKYVCEADGFWTSSKGEKLPPVCEPVCGLSTHTIGGRIVGGQPAKPGDFPWQVLLLGQTTAAAGALIHDNWVLTAAHAVYEKRMAASSLNIRMGILKRLSPHYTQAWPEEIFIHEGYTHGAGFDNDIALIKLKNKVTINGSIMPVCLPRKEAASLMRTDFTGTVAGWGLTQKGLLARNLMFVDIPIADHQKCTTVYEKLYPGVRVSANMLCAGLETGGKDSCRGDSGGALVFLDNETQRWFVGGIVSWGSINCGAAGQYGVYTKVINYIPWNENIISNF
- C4 deposition on mannan-coated wells (sMAP-/- mouse serum): the amount of C4 was restored by up to 46% of that of wild-type serum in a dose-dependent manner and reached a plateau (FIG. 25B)

— US20110091450
